The target in assay [1] is human ephrin type-A receptor 2 (EphA2), ectopically expressed on CHO cells (Homo sapiens, UniProt P29317). Description: flow cytometry on cells. For orientation: A flow cytometer gives signals particle by particle.
Assay [2] has as its target Lgr5 (control), ectopically expressed on CHO cells (Homo sapiens (assumed), UniProt O75473). Description: flow cytometry on cells.

Sequence of Lgr5 (control), ectopically expressed on CHO cells (O75473 22-907): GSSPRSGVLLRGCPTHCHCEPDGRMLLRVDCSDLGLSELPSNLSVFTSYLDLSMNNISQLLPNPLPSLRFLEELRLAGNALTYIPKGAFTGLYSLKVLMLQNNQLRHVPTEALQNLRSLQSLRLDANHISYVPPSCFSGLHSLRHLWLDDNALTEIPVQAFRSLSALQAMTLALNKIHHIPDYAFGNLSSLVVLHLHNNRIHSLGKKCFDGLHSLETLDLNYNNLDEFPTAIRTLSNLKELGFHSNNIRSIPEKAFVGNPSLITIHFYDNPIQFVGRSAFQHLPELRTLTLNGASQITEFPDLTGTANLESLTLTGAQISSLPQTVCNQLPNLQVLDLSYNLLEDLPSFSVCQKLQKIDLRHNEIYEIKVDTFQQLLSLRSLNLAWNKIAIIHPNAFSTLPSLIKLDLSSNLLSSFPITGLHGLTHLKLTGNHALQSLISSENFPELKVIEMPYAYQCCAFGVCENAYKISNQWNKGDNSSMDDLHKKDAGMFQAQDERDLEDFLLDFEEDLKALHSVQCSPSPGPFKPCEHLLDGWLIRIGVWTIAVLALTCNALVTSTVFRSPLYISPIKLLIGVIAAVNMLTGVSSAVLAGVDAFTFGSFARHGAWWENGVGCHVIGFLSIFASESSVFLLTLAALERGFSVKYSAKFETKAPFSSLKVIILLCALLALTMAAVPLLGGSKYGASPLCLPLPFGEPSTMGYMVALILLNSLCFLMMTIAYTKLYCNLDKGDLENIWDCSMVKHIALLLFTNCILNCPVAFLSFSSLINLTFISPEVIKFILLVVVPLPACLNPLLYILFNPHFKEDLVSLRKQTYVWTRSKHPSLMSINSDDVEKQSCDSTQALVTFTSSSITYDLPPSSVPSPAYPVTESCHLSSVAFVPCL
Sequence of human ephrin type-A receptor 2 (EphA2), ectopically expressed on CHO cells (P29317 24-976): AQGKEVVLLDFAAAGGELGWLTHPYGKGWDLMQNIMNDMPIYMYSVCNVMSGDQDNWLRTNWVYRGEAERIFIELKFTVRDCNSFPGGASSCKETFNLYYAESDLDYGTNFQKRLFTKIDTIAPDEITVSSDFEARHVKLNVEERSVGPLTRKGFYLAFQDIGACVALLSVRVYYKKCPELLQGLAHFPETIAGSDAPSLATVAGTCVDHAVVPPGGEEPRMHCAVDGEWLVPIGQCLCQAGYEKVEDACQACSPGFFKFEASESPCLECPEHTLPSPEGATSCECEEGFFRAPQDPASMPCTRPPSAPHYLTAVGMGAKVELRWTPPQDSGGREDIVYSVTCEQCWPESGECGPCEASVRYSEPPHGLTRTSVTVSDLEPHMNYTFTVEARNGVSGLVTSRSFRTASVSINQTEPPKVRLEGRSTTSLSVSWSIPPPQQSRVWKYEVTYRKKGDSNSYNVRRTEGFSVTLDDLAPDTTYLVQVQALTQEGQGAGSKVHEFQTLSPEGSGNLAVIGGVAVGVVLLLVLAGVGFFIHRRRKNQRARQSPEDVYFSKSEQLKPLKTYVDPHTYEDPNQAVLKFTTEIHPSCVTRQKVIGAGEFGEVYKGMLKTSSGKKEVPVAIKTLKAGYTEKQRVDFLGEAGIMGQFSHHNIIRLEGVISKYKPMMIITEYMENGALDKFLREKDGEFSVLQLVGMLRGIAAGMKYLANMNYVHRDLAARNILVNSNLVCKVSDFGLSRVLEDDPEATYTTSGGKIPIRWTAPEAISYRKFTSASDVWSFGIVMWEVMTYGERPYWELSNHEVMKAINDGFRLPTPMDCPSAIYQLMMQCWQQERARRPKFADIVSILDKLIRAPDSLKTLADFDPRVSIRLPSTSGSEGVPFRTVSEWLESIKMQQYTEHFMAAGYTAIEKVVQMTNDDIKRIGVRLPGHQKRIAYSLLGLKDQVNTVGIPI

B1: IgG HCA-F1 (antibody, V domains shown)
VH: QVQLQESGGGLVQPGGSLRLSCAASGFTFSSYSMNWVRQAPGKGLEWVSYISSSSSTIYYADSVKGRFTISRDNAKNSLYLQMNSLRAEDTAVYYCARYRLPDFWSGYPNYGMDVWGQGTTVTVSS
VL: QSVLTQPPSVSGAPGQRVTISCTGSSSNIGAGYDVHWYQQLPGTAPKLLIYGNSNRPSGVPDRFSGSKSGTSASLAITGLQAEDEADYYCQSYDSSLSGHVVFGGGTKLTVL
Consider B1, for which the binding result was “binds” in assay [1] and “no binding” in assay [2].

The values above are taken from PMC4256486 (Molecular & Cellular Proteomics : MCP, 2014).
